Source: article PMC1636413 (Nucleic Acids Research, 2006)
Where “and” joins values, the source holds several entries; their conditions need not be identical. Equal entries are not always repeated.

B1: MutS-CTD (His6-tagged C-terminal domain of E.coli MutS, residues 801-853) (domain or fragment, UniProt P23909 801-853, looked up)
chain: PNAAATQVDGTQMSLLSVPEETSPAVEALENLDPDSLTPRQALEWIYRLKSLV
B2: MutS^CF (cysteine-free full-length E.coli MutS, N-terminal His6-tagged) (natural protein, UniProt P23909 1-853, looked up)
chain: MSAIENFDAHTPMMQQYLRLKAQHPEILLFYRMGDFYELFYDDAKRASQLLDISLTKRGASAGEPIPMAGIPYHAVENYLAKLVNQGESVAIAEQIGDPATSKGPVERKVVRIVTPGTISDEALLQERQDNLLAAIWQDSKGFGYATLDISSGRFRLSEPADRETMAAELQRTNPAELLYAEDFAEMSLIEGRRGLRRRPLWEFEIDTARQQLNLQFGTRDLVGFGVENAPRGLSAAGALLQYAKDTQRTTLPHIRSITMEREQDSIIMDAATRRNLEITQNLAGGAENTLASVLDSTVTPMGSRMLKRWLHMPVRDTRVLLERQQTIGALQDFTAGLQPVLRQVGDLERILARLALRTARPRDLARMRHAFQQLPELRAQLETVDSAPVQALREKMGEFAELRDLLERAIIDTPPVLVRDGGVIASGYNEELDEWRALADGATDYLERLEVRERERTGLDTLKVGFNAVHGYYIQISRGQSHLAPINYMRRQTLKNAERYIIPELKEYEDKVLTSKGKALALEKQLYEELFDLLLPHLEALQQSASALAELDVLVNLAERAYTLNYTSPTFIDKPGIRITEGRHPVVEQVLNEPFIANPLNLSPQRRMLIITGPNMGGKSTYMRQTALIALMAYIGSYVPAQKVEIGPIDRIFTRVGAADDLASGRSTFMVEMTETANILHNATEYSLVLMDEIGRGTSTYDGLSLAWAVAENLANKIKALTLFATHYFELTQLPEKMEGVANVHLDALEHGDTIAFMHSVQDGAASKSYGLAVAALAGVPKEVIKRARQKLRELESISPNAAATQVDGTQMSLLSVPEETSPAVEALENLDPDSLTPRQALEWIYRLKSLV
B3: MutS800^CF (cysteine-free truncated E.coli MutS, residues 1-800, N-terminal His6-tagged) (domain or fragment, UniProt P23909 1-800, looked up)
chain: MSAIENFDAHTPMMQQYLRLKAQHPEILLFYRMGDFYELFYDDAKRASQLLDISLTKRGASAGEPIPMAGIPYHAVENYLAKLVNQGESVAIAEQIGDPATSKGPVERKVVRIVTPGTISDEALLQERQDNLLAAIWQDSKGFGYATLDISSGRFRLSEPADRETMAAELQRTNPAELLYAEDFAEMSLIEGRRGLRRRPLWEFEIDTARQQLNLQFGTRDLVGFGVENAPRGLSAAGALLQYAKDTQRTTLPHIRSITMEREQDSIIMDAATRRNLEITQNLAGGAENTLASVLDSTVTPMGSRMLKRWLHMPVRDTRVLLERQQTIGALQDFTAGLQPVLRQVGDLERILARLALRTARPRDLARMRHAFQQLPELRAQLETVDSAPVQALREKMGEFAELRDLLERAIIDTPPVLVRDGGVIASGYNEELDEWRALADGATDYLERLEVRERERTGLDTLKVGFNAVHGYYIQISRGQSHLAPINYMRRQTLKNAERYIIPELKEYEDKVLTSKGKALALEKQLYEELFDLLLPHLEALQQSASALAELDVLVNLAERAYTLNYTSPTFIDKPGIRITEGRHPVVEQVLNEPFIANPLNLSPQRRMLIITGPNMGGKSTYMRQTALIALMAYIGSYVPAQKVEIGPIDRIFTRVGAADDLASGRSTFMVEMTETANILHNATEYSLVLMDEIGRGTSTYDGLSLAWAVAENLANKIKALTLFATHYFELTQLPEKMEGVANVHLDALEHGDTIAFMHSVQDGAASKSYGLAVAALAGVPKEVIKRARQKLRELESIS
B4: MutS^CF/D835R (cysteine-free full-length E.coli MutS with D835R, N-terminal His6-tagged) (natural protein, UniProt P23909 1-853, looked up)
chain: MSAIENFDAHTPMMQQYLRLKAQHPEILLFYRMGDFYELFYDDAKRASQLLDISLTKRGASAGEPIPMAGIPYHAVENYLAKLVNQGESVAIAEQIGDPATSKGPVERKVVRIVTPGTISDEALLQERQDNLLAAIWQDSKGFGYATLDISSGRFRLSEPADRETMAAELQRTNPAELLYAEDFAEMSLIEGRRGLRRRPLWEFEIDTARQQLNLQFGTRDLVGFGVENAPRGLSAAGALLQYAKDTQRTTLPHIRSITMEREQDSIIMDAATRRNLEITQNLAGGAENTLASVLDSTVTPMGSRMLKRWLHMPVRDTRVLLERQQTIGALQDFTAGLQPVLRQVGDLERILARLALRTARPRDLARMRHAFQQLPELRAQLETVDSAPVQALREKMGEFAELRDLLERAIIDTPPVLVRDGGVIASGYNEELDEWRALADGATDYLERLEVRERERTGLDTLKVGFNAVHGYYIQISRGQSHLAPINYMRRQTLKNAERYIIPELKEYEDKVLTSKGKALALEKQLYEELFDLLLPHLEALQQSASALAELDVLVNLAERAYTLNYTSPTFIDKPGIRITEGRHPVVEQVLNEPFIANPLNLSPQRRMLIITGPNMGGKSTYMRQTALIALMAYIGSYVPAQKVEIGPIDRIFTRVGAADDLASGRSTFMVEMTETANILHNATEYSLVLMDEIGRGTSTYDGLSLAWAVAENLANKIKALTLFATHYFELTQLPEKMEGVANVHLDALEHGDTIAFMHSVQDGAASKSYGLAVAALAGVPKEVIKRARQKLRELESISPNAAATQVDGTQMSLLSVPEETSPAVEALENLDPRSLTPRQALEWIYRLKSLV
B5: MutS-CTD^ΔHis6 (MutS-CTD with the N-terminal His6-tag removed by DAPase) (domain or fragment, E.coli, UniProt P23909 801-853, looked up)
chain: PNAAATQVDGTQMSLLSVPEETSPAVEALENLDPDSLTPRQALEWIYRLKSLV
B6: MutS-CTD^D835R (domain or fragment, E.coli, UniProt P23909 801-853, looked up)
chain: PNAAATQVDGTQMSLLSVPEETSPAVEALENLDPRSLTPRQALEWIYRLKSLV
B7: MutS^wt (E.coli MutS, full-length, N-terminal His6-tagged) (natural protein, UniProt P23909 1-853, looked up)
chain: MSAIENFDAHTPMMQQYLRLKAQHPEILLFYRMGDFYELFYDDAKRASQLLDISLTKRGASAGEPIPMAGIPYHAVENYLAKLVNQGESVAICEQIGDPATSKGPVERKVVRIVTPGTISDEALLQERQDNLLAAIWQDSKGFGYATLDISSGRFRLSEPADRETMAAELQRTNPAELLYAEDFAEMSLIEGRRGLRRRPLWEFEIDTARQQLNLQFGTRDLVGFGVENAPRGLCAAGCLLQYAKDTQRTTLPHIRSITMEREQDSIIMDAATRRNLEITQNLAGGAENTLASVLDCTVTPMGSRMLKRWLHMPVRDTRVLLERQQTIGALQDFTAGLQPVLRQVGDLERILARLALRTARPRDLARMRHAFQQLPELRAQLETVDSAPVQALREKMGEFAELRDLLERAIIDTPPVLVRDGGVIASGYNEELDEWRALADGATDYLERLEVRERERTGLDTLKVGFNAVHGYYIQISRGQSHLAPINYMRRQTLKNAERYIIPELKEYEDKVLTSKGKALALEKQLYEELFDLLLPHLEALQQSASALAELDVLVNLAERAYTLNYTCPTFIDKPGIRITEGRHPVVEQVLNEPFIANPLNLSPQRRMLIITGPNMGGKSTYMRQTALIALMAYIGSYVPAQKVEIGPIDRIFTRVGAADDLASGRSTFMVEMTETANILHNATEYSLVLMDEIGRGTSTYDGLSLAWACAENLANKIKALTLFATHYFELTQLPEKMEGVANVHLDALEHGDTIAFMHSVQDGAASKSYGLAVAALAGVPKEVIKRARQKLRELESISPNAAATQVDGTQMSLLSVPEETSPAVEALENLDPDSLTPRQALEWIYRLKSLV

Experiments:
[1] = target: the molecule itself; assay: AUC
[2] = target: the molecule itself; assay: SEC
[3] = target: the molecule itself; assay: SEC; remark: listed apart in the source

Protein | stoichiometry N [1] | stoichiometry N [2] | stoichiometry N [3]
B1 | 4 | 2 | –
B2 | – | – | 4 and 2
B3 | – | – | 2
B4 | – | – | 2
B5 | 4 | – | –
B6 | 2 | – | –
B7 | – | – | 2 and 4
